Tests used:
[1] = biological target: T1, cynomolgus monkey cell surface PD-1 (cynomolgus monkey, UniProt B0LAJ3 25-288); assay: flow cytometry on activated cynomolgus monkey PBMC, FITC-labeled anti-human IgG, MFI
T1 construct: also called cynomolgous monkey PD-1
Protocol: (§1) Activated human T-cells, monkey peripheral blood mononuclear cells (PBMC), and CHO cells transfected with PD-1 were each tested for antibody binding. Human T cells and cynomolgous PBMC were activated by […] to induce PD-1 expression on T cells prior to binding with a human anti-PD-1 monoclonal antibody. […] The cells were washed and binding was detected with a FITC-labeled anti-human IgG Ab. Flow cytometric analyses were performed using a FACScan flow cytometry (Becton Dickinson, San Jose, Calif.).

[2] = biological target: T2, ICOS fusion protein (R&D Biosystems) (human, UniProt Q9Y6W8 21-141); assay: ELISA on ICOS fusion protein, goat anti-human IgG (kappa) HRP
T2 sequence (looked up): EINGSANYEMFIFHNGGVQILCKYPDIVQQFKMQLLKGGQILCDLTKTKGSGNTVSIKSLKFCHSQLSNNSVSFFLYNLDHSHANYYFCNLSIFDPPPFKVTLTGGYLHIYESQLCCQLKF
Protocol: (§2) A comparison of the binding of anti-PD-1 antibodies to CD28 family members was performed by standard ELISA using four different CD28 family members to examine the specificity of binding for PD-1.
(§3) Standard ELISA procedures were performed. The anti-PD-1 human monoclonal antibodies were added at a concentration of 20 μg/ml. Goat-anti-human IgG (kappa chain-specific) polyclonal antibody conjugated with horseradish peroxidase (HRP) was used as secondary antibody.

[3] = biological target: T3, purified recombinant human PD-1 fusion protein (human, UniProt Q15116 25-170); assay: Biacore SPR; PD-1 fusion protein on CM5 chip, antibody at 267 nM
T3 construct: extracellular domain; Made in CHO cells; amine-coupled to a CM5 chip for Biacore
T3 sequence (Q15116 25-170): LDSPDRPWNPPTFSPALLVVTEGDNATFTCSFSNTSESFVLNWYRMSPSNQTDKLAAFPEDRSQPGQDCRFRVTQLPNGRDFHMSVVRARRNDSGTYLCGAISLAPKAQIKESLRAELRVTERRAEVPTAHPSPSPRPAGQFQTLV
Protocol: Anti-PD-1 antibodies were characterized for affinities and binding kinetics by Biacore analysis (Biacore AB, Uppsala, Sweden). Purified recombinant human PD-1 fusion protein was covalently linked to a CM5 chip (carboxy methyl dextran coated chip) via primary amines, using standard amine coupling chemistry and kit provided by Biacore. Binding was measured by flowing the antibodies in HBS EP buffer (provided by Biacore AB) at a concentration of 267 nM at a low rate of 50 μl/min. The antigen-antibody association kinetics was followed for 3 minutes and the dissociation kinetics was followed for 7 minutes. The association and dissociation curves were fit to a 1:1 Langmuir binding model using BIAevaluation software (Biacore AB). To minimize the effects of avidity in the estimation of the binding constants, only the initial segment of data corresponding to association and dissociation phases were used for fitting.

[4] = biological target: T4, CD28 fusion protein (R&D Biosystems) (human, UniProt P10747 19-152); assay: ELISA on CD28 fusion protein, goat anti-human IgG (kappa) HRP
T4 sequence (P10747 19-152): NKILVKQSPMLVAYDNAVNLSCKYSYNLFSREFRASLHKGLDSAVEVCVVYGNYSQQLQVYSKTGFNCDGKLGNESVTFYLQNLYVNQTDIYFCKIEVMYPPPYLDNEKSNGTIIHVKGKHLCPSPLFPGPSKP
Protocol: as §2, §3

[5] = biological target: T5, human PD-1 expressed at the cell surface (human, UniProt Q15116 25-288); assay: flow cytometry on activated human T cells, FITC-labeled anti-human IgG, MFI
T5 construct: whole, on cells; also called hPD-1; CHO hPD-1 cells
T5 sequence (Q15116 25-288): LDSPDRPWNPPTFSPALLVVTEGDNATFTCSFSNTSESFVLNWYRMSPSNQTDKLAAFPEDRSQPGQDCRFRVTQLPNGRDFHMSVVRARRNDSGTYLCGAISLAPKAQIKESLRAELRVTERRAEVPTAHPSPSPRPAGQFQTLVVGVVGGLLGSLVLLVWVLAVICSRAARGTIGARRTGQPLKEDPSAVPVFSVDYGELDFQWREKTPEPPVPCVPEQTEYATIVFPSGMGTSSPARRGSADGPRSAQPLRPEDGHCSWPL
Protocol: as §1

[6] = biological target: T5, human PD-1 expressed at the cell surface; assay: flow cytometry on CHO cells transfected with human PD-1, FITC-labeled anti-human IgG, MFI
Protocol: as §1

[7] = biological target: T6, CTLA-4 fusion protein (R&D Biosystems) (human, UniProt P16410 37-162); assay: ELISA on CTLA-4 fusion protein, goat anti-human IgG (kappa) HRP
T6 sequence (looked up): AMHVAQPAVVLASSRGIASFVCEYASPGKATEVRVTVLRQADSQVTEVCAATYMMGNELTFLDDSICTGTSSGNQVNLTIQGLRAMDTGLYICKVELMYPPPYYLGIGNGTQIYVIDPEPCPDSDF
Protocol: as §2, §3

[8] = biological target: T5, human PD-1 expressed at the cell surface; assay: flow cytometry blocking assay on CHO/hPD-1 cells: antibody first, then FITC-labeled PD-L1 fusion protein as the blocked ligand, MFI
Protocol: (§4) PD-1 expressing CHO cells were suspended in FACS buffer (PBS with 4% fetal calf serum). […] Flow cytometric analyses were performed using a FACScan flowcytometer (Becton Dickinson, San Jose, Calif.).

[9] = biological target: T4, CD28 fusion protein (R&D Biosystems); assay: standard ELISA on fusion proteins
Protocol: as §2, §3

[10] = biological target: T6, CTLA-4 fusion protein (R&D Biosystems); assay: standard ELISA on fusion proteins
Protocol: as §2, §3

[11] = biological target: T2, ICOS fusion protein (R&D Biosystems); assay: standard ELISA on fusion proteins
Protocol: as §2, §3

[12] = biological target: T5, human PD-1 expressed at the cell surface; assay: flow cytometry blocking assay on CHO/PD-1 cells: antibody first, then FITC-labeled PD-L2 fusion protein as the blocked ligand, MFI
Protocol: as §4

T1 sequence (B0LAJ3 entry or part of it limits assumed): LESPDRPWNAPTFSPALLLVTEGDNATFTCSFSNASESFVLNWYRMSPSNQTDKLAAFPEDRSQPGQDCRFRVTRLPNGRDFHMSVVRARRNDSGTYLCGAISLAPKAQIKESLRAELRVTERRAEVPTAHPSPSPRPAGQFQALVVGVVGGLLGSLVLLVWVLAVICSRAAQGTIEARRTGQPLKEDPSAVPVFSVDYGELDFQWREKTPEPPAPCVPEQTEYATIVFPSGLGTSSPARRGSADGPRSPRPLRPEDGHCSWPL

| Binder | EC50 (read off the curve) [1] [nM] | binding result [2] | Kd [3] [nM] | koff [3] [s⁻¹] | kon [3] [M⁻¹ s⁻¹] | binding result [4] | EC50 (read off the curve) [5] [nM] | EC50 (read off the curve) [6] [nM] | binding result [7] | IC50 (read off the curve) [8] [nM] | binding result [9] | binding result [10] | binding result [11] | IC50 (read off the curve) [12] [nM] |
| --- | --- | --- | --- | --- | --- | --- | --- | --- | --- | --- | --- | --- | --- | --- |
| anti-PD-1 human monoclonal antibody 17D8 (antibody, V domains shown, Fully human IgG with kappa light chain from a hybridoma (HuMab/KM mice)) VH: QVQLVESGGDVVQPGGSLRLSCAASGVAFSNYGMHWVRQAPGKGLEWVAVIWYDGSNKYYADSVKGRFTISRDNSKNMLYLQMNSLRAEDTAMYYCARNDDYWGQGTLVTVSS VL: EIVLTQSPATLSLSPGERATLSCRASQSVSSYLAWYQQKPGQAPRLIIYDASNRATGIPARFSGSGSGTDFTLTISSLEPEDFAVYYCQQRSNWPLTFGGGTKVEIK | ~3 | no binding (tested: 20 µg/ml) | 0.16 | 4.5e-05 | 256000 | no binding (tested: 20 µg/ml) | ~2 | ~10 | no binding (tested: 20 µg/ml) |  |  |  |  |  |
| anti-PD-1 human monoclonal antibody 2D3 (antibody, V domains shown, Fully human IgG with kappa light chain from a hybridoma) VH: QVQLVESGGDVVQPGRSLRLSCAASGLTFTNYGFHWVRQAPGKGLEWVAVIWYDGSKKYYADSVKGRFTISRDNSKNTLYLQMNNLRAEDTAVYYCATGDDYWGQGTLVTVSS VL: EIVLTQSPATLSLSPGERATLSCRASQSVSSYLAWYQQKPGQAPRLLIYDTSNRATGIPARFSGSGSGTDFTLTISSLEPEDFAVYYCQQRSNWPLTFGGGTKVEIK | ~1 | no binding (tested: 20 µg/ml) | 1.2 | 0.000452 | 377000 | no binding (tested: 20 µg/ml) | ~0.7 |  | no binding (tested: 20 µg/ml) |  |  |  |  |  |
| anti-PD-1 human monoclonal antibody 4H1 (antibody, V domains shown, Fully human IgG with kappa light chain from a hybridoma) VH: QVYLVESGGGVVQPGRSLRLSCAASGFTFSNYGMHWVRQAPGKGLEWVALIWYDGSNKYYADSVKGRFTISRDNSKNTLYLQMTSLRVEDTAVYYCASNVDHWGQGTLVTVSS VL: EIVLTQSPATLSLSPGERATLSCRASQSVSSYLAWYQQKPGQAPRLLIYDASNRATGIPARFSGSGSGTDFTLTISSLEPEDFAVYYCQQSSNWPRTFGQGTKVEIK | ~0.9 | no binding (tested: 20 µg/ml) |  |  |  | no binding (tested: 20 µg/ml) | ~0.6 | ~3 | no binding (tested: 20 µg/ml) | ~2 |  |  |  |  |
| anti-PD-1 human monoclonal antibody 5C4 (antibody, V domains shown, Fully human IgG with kappa light chain from a hybridoma; also called 5C4-IgG1; 5C4-IgG4) VH: QVQLVESGGGVVQPGRSLRLDCKASGITFSNSGMHWVRQAPGKGLEWVAVIWYDGSKRYYADSVKGRFTISRDNSKNTLFLQMNSLRAEDTAVYYCATNDDYWGQGTLVTVSS VL: EIVLTQSPATLSLSPGERATLSCRASQSVSSYLAWYQQKPGQAPRLLIYDASNRATGIPARFSGSGSGTDFTLTISSLEPEDFAVYYCQQSSNWPRTFGQGTKVEIK | ~1 | no binding (tested: 20 µg/ml) |  |  |  |  |  |  | no binding (tested: 20 µg/ml) |  |  |  |  |  |
| anti-PD-1 human monoclonal antibody 7D3 (antibody, V domains shown, Fully human IgG with kappa light chain from a hybridoma) VH: QVQLVESGGGVVQPGRSLRLSCTTSGITFSSYGFHWVRQAPGKGLEWVAVIWYDGSKKYYADSVKGRFTLSRDDSKNTLYLQMNSLRAEDTAVYYCVTGDDYWGQGTLVTVSS VL: EIVLTQSPATLSLSPGERATLSCRASQSVSSYLAWYQQKPGQAPRLLIYDASNRATGIPARFSGSGSGTDFTLTISSLEPEDFAVYYCQQRSNWPLTFGGGTKVEIK |  |  |  |  |  |  |  |  |  |  | no binding (tested: 20 µg/ml) | no binding (tested: 20 µg/ml) | no binding (tested: 20 µg/ml) |  |
| anti-PD-1 human monoclonal antibody 4A11 (antibody, V domains shown, Fully human IgG with kappa light chain from a hybridoma) VH: QLQLQESGPGLVKPSETLSLTCTVSGGSLSRSSFFWGWIRQPPGKGLEWIGSIYYSGSTYYNPSLKSRVTISVDTSKNQFSLKLSSVTAADTAVYYCVRDYDILTGDEDYWGQGTLVTVSS VL: DIQMTQSPSSLSASVGDRVSITCRASQGISSWLAWYQQKPEKAPKSLIYAASNLRSGVPSRFSGSGSGTDFTLTISSLQPEDFATYYCQQYYSYPRTFGQGTKVEIK |  | no binding (tested: 20 µg/ml) | 0.13 | 9.9e-06 | 76000 | no binding (tested: 20 µg/ml) |  | ~10 | no binding (tested: 20 µg/ml) |  |  |  |  | ~8 |
| anti-PD-1 human monoclonal antibody 5F4 (antibody, V domains shown, Fully human IgG with kappa light chain from a hybridoma) VH: QLQLQESGPGLVKPSETLSLTCSVSGGSLSRSSYFWGWIRQPPGKGLEWIASIFYSGETYFNPSLKSRVTISVDTSRNQFSLKLSSVTAADTAVYYCARDYDILTGDEDYWGQGTLVTVSS VL: DIQMTQSPSSLSASVGDRVTITCRASQGISSWLAWYQQKPEKAPKSLIYAASSLQSGVPSRFSGSGSGTDFTLTISSLQPEDFATYYCQQYYSYPRTFGQGTKVEIK |  |  |  |  |  |  |  |  |  |  | no binding (tested: 20 µg/ml) | no binding (tested: 20 µg/ml) | no binding (tested: 20 µg/ml) |  |
